Assay [1] deals with T1, human CLDN18.1 (human, UniProt P56856 1-261).
T1 construct: whole, on cells; also called hCLDN18.1
Description: FACS on HEK293/hCLDN18.1 cells.
Description: (§1) Antibodies were assayed for binding affinity by FACS. Test cells include HEK293/hCLDN18.2, HEK293/hCLDN18.1, NUGC4_D8 and Jurkat cells. […] The cell density was adjusted to 10⁶ cells/mL, and 50 μL of the cell suspension was added to each well of a 96-well plate. Antibodies were diluted to different concentrations with FACS buffer, and 50 μL of the antibody dilution was added to each well of the 96-well plate. After 2 h of incubation at 4° C., the plate was washed twice with FACS buffer. […] After 1 h of incubation at 4° C., the plate was washed twice with FACS buffer. The cells were resuspended in fixative solution, and then the fluorescence of the cells was monitored using an FACS instrument (ACEA NovoCyte).

Assay [2] has as its target human CLDN18.2 (human). Description: cell-based or functional assay.
The target in assay [3] is CLDN18.2 of SNU620 cells (methionine to leucine at amino acid 149) (human, UniProt P56856-2 1-261). In words: cell-based or functional assay.
The target of assay [4] is T2, human CLDN18.2 (human).
T2 construct: the HEK293 line was made with a GenScript plasmid; also called hCLDN18.2
Description: FACS on NUGC4_D8 cells.

Assay [5] deals with T3, human CD3 on Jurkat cells (human, UniProt P07766 23-207).
T3 construct: whole, on cells; on cells it stands in the whole CD3/TCR complex; also called CD3-expressing cells
T3 sequence (P07766 23-207): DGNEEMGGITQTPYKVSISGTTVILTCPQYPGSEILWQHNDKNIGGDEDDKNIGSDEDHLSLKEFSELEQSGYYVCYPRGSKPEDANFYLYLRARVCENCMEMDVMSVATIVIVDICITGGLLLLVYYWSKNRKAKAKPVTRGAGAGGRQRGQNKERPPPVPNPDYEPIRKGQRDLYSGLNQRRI
Description: FACS on Jurkat cells (CD3).
Description: as §1

The target in assay [6] is T3, human CD3 on Jurkat cells. Description: FACS on Jurkat cells (CD3). The source holds these as a separate data set.
Description: as §1
Assay [7] addresses T2, human CLDN18.2. In words: FACS on HEK293/hCLDN18.2 cells.
For assay [8], the target named is T3, human CD3 on Jurkat cells. Description: FACS on Jurkat cells.

Usually EC50 stands for the concentration needed to bring the measured effect to its halfway point. The low end stands for higher potency in that assay, the high end for lower potency in that assay.

Like-named read-outs stand apart in the source and are kept apart here.

Sequence of CLDN18.2 of SNU620 cells (methionine to leucine at amino acid 149) (P56856 other isoform, or with tags, fused parts or gaps limits assumed): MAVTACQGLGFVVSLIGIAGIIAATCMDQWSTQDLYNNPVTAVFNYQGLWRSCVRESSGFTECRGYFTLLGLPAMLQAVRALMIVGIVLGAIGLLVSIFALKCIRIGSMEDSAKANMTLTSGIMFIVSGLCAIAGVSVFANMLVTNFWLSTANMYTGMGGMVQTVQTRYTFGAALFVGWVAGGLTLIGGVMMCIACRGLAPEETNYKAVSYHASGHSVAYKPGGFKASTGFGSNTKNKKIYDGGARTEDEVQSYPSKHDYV
T1 sequence (P56856 whole entry): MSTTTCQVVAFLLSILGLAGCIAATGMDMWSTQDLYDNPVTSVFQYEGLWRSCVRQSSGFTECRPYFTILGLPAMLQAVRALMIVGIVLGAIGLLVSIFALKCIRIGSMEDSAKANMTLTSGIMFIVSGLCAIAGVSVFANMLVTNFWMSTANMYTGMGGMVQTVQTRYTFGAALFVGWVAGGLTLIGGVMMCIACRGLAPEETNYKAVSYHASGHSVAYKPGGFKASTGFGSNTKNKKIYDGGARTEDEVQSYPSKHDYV

B1: PR005519 (bispecific antibody)
chain 1: EVQLVESGGGLVQPGGSLRLSCAASGFTFSSYWMHWVRQVPGKGLVWVSRINSDGSRTIYADSVKGRFTISRDNAKNTLYLQMNSLRAEDTAVYYCARGEDHDILTGYPIRGQGTTVTVSSASEPKSSDKTHTCPPCPAPEAAGGPSVFLFPPKPKDTLMISRTPEVTCVVVDVSHEDPEVKFNWYVDGVEVHNAKTKPREEQYNSTYRVVSVLTVLHQDWLNGKEYKCKVSNKALPAPIEKTISKAKGQPREPQVCTLPPSREEMTKNQVSLSCAVKGFYPSDIAVEWESNGQPENNYKTTPPVLDSDGSFFLVSKLTVDKSRWQQGNVFSCSVMHEALHNHYTQKSLSLSPGK
chain 2: not shown
chain 3: EVQLLESGGGLVQPGGSLRLSCAASGFTFSTYAMNWVRQAPGKGLEWVSRIRSKYNNYATYYADSVKDRFTISRDDSKSTLYLQMNSLRAEDTAVYYCVRHGNFGNSYVSWFAYWGQGTLVTVSSASTKGPSVFPLAPSSKSTSGGTAALGCLVKDYFPEPVTVSWNSGALTSGVHTFPAVLQSSGLYSLSSVVTVPSSSLGTQTYICNVNHKPSNTKVDKKVEPKSC
notes: structure 3 (2+1 HCAb-Fc-Fab, CD3 VL-CL at the C-terminus of one HCAb chain; third chain is CD3 VH-CH1); PR001848 / PR004533; LALA
Turning to B1, the binding result in assay [1] is recorded as “no binding”; in assay [5] it was “binds”. Moreover, the “TDCC, Titer EC50 (pM), NUGC4_D8” value in assay [2] turned out to be 32.9 pM. Further, the “TDCC, Titer EC50 (pM), SNU620” value in assay [3] stood at 70.5 pM. For the same molecule, in assay [4], the EC50 is 13.9 nM.

B2: PR005521 (bispecific antibody)
chain 1: EVQLVESGGGLVQPGGSLRLSCAASGFTFSSYWMHWVRQVPGKGLVWVSRINSDGSRTIYADSVKGRFTISRDNAKNTLYLQMNSLRAEDTAVYYCARGEDHDILTGYPIRGQGTTVTVSSGGGGSGGGGSGGGGSEVQLVESGGGLVQPGGSLRLSCAASGFTFSSYWMHWVRQVPGKGLVWVSRINSDGSRTIYADSVKGRFTISRDNAKNTLYLQMNSLRAEDTAVYYCARGEDHDILTGYPIRGQGTTVTVSSASEPKSSDKTHTCPPCPAPEAAGGPSVFLFPPKPKDTLMISRTPEVTCVVVDVSHEDPEVKFNWYVDGVEVHNAKTKPREEQYNSTYRVVSVLTVLHQDWLNGKEYKCKVSNKALPAPIEKTISKAKGQPREPQVCTLPPSREEMTKNQVSLSCAVKGFYPSDIAVEWESNGQPENNYKTTPPVLDSDGSFFLVSKLTVDKSRWQQGNVFSCSVMHEALHNHYTQKSLSLSPGK
chain 2: not shown
chain 3: B1 chain 3
notes: third chain is CD3 VH-CH1; PR001848 / PR004533; LALA
For B2, the binding result in assay [1] is “no binding”; in assay [5], “binds”. Further, in assay [2], the “TDCC, Titer EC50 (pM), NUGC4_D8” value worked out at 73.9 pM. Also, in assay [3], the “TDCC, Titer EC50 (pM), SNU620” value worked out at 41 pM. For the same molecule, in assay [4], the EC50 was 13.9 nM.

B3: PR005076 (bispecific antibody, human IgG1, lambda, L234A L235A)
chain: EVQLVESGGGLVQPGGSLRLSCAASGFTFSSYWMYWVRQVPGKGLVWVSHINSDGSTTQYADSVKGRFTISRDNAKNMLYLQMNSLRAEDTAVYYCARDFPVLGGSHFDFQHWGQGTLVTVSSGGGGSGGGGSGGGGSEVQLVESGGGLVQPGGSLRLSCAASGFTFSSYWMYWVRQVPGKGLVWVSHINSDGSTTQYADSVKGRFTISRDNAKNMLYLQMNSLRAEDTAVYYCARDFPVLGGSHFDFQHWGQGTLVTVSSASEPKSSDKTHTCPPCPAPEAAGGPSVFLFPPKPKDTLMISRTPEVTCVVVDVSHEDPEVKFNWYVDGVEVHNAKTKPREEQYNSTYRVVSVLTVLHQDWLNGKEYKCKVSNKALPAPIEKTISKAKGQPREPQVCTLPPSREEMTKNQVSLSCAVKGFYPSDIAVEWESNGQPENNYKTTPPVLDSDGSFFLVSKLTVDKSRWQQGNVFSCSVMHEALHNHYTQKSLSLSPGK
heavy: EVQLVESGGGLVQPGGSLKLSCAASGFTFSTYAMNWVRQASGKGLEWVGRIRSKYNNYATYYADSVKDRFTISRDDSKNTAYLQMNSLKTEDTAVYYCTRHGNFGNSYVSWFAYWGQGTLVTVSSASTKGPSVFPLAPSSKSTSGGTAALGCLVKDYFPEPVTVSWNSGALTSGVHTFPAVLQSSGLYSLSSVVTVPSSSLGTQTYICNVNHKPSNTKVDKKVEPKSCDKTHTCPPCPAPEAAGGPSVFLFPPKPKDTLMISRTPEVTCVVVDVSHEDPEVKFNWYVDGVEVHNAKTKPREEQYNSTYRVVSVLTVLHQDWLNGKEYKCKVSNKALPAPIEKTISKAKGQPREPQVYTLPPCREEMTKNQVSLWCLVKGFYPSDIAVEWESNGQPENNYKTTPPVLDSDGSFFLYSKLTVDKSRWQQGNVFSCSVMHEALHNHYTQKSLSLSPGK
light: QAVVTQEPSLTVSPGGTVTLTCRSSTGAVTTSNYANWVQQKPGQAPRGLIGGTNKRAPWTPARFSGSLLGDKAALTLLGAQPEDEAEYFCALWYSNLWVFGGGTKLTVLGQPKAAPSVTLFPPSSEELQANKATLVCLISDFYPGAVTVAWKADSSPVKAGVETTTPSKQSNNKYAASSYLSLTPEQWKSHRSYSCQVTHEGSTVEKTVAPTECS
notes: structure 1; CD3 Fab from PR003886, CLDN18.2 VH from PR004536; LALA
For B3, in assay [2], the “TDCC, Titer EC50 (pM), NUGC4_D8” value worked out at 102 pM. In assay [6], the binding result is reported as “binds”.

B4: PR004603 (bispecific antibody, human IgG1, lambda, L234A L235A)
chain: EVQLVESGGGLVQPGGSLRLSCAASGFTFSSYWMHWVRQAPGKGLEWVSYINNDGSSTRYADSVKGRFTISRDNAKNTLYLQMNSLRAEDTAVYYCTEAPPYGNYERDYWGQGTLVTVSSGGGGSGGGGSGGGGSEVQLVESGGGLVQPGGSLRLSCAASGFTFSSYWMHWVRQAPGKGLEWVSYINNDGSSTRYADSVKGRFTISRDNAKNTLYLQMNSLRAEDTAVYYCTEAPPYGNYERDYWGQGTLVTVSSASEPKSSDKTHTCPPCPAPEAAGGPSVFLFPPKPKDTLMISRTPEVTCVVVDVSHEDPEVKFNWYVDGVEVHNAKTKPREEQYNSTYRVVSVLTVLHQDWLNGKEYKCKVSNKALPAPIEKTISKAKGQPREPQVCTLPPSREEMTKNQVSLSCAVKGFYPSDIAVEWESNGQPENNYKTTPPVLDSDGSFFLVSKLTVDKSRWQQGNVFSCSVMHEALHNHYTQKSLSLSPGK
heavy: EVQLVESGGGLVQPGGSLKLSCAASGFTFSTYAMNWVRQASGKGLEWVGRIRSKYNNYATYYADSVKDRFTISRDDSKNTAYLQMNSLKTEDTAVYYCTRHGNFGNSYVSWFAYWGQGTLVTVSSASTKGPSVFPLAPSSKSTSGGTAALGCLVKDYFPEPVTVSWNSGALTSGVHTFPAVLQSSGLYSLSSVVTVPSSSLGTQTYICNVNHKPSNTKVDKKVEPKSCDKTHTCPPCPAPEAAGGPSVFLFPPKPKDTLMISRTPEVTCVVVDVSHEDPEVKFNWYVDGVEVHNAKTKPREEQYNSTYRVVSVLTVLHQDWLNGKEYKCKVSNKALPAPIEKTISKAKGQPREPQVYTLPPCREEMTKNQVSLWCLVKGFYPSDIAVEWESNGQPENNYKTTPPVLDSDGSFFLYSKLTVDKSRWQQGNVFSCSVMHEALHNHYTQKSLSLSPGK
light: B3 light
notes: structure 1 (2+1 Fab-Fc-Dual VH); CD3 Fab from PR003886, CLDN18.2 VH from PR004227; IgG1 knob/hole, LALA
As to B4, in assay [2], the “TDCC, Titer EC50 (pM), NUGC4_D8” value stood at 251 pM. Besides, the “TDCC, Titer EC50 (pM), SNU620” value in assay [3] is 17.8 pM. In addition, in assay [7], the EC50 turned out to be 33.1 nM. The binding result in assay [6] is listed as “binds”.

B5: PR005525 (bispecific antibody, human IgG1, lambda, L234A L235A)
chain: EVQLVESGGGLVQPGGSLRLSCAASGFTFSSYWMHWVRQVPGKGLVWVSRINSDGSRTIYADSVKGRFTISRDNAKNTLYLQMNSLRAEDTAVYYCARGEDHDILTGYPIRGQGTTVTVSSGGGGSGGGGSGGGGSEVQLVESGGGLVQPGGSLRLSCAASGFTFSSYWMHWVRQVPGKGLVWVSRINSDGSRTIYADSVKGRFTISRDNAKNTLYLQMNSLRAEDTAVYYCARGEDHDILTGYPIRGQGTTVTVSSGGGGSGGGGSGGGGSEVQLVESGGGLVQPGGSLRLSCAASGFTFSSYWMHWVRQVPGKGLVWVSRINSDGSRTIYADSVKGRFTISRDNAKNTLYLQMNSLRAEDTAVYYCARGEDHDILTGYPIRGQGTTVTVSSASEPKSSDKTHTCPPCPAPEAAGGPSVFLFPPKPKDTLMISRTPEVTCVVVDVSHEDPEVKFNWYVDGVEVHNAKTKPREEQYNSTYRVVSVLTVLHQDWLNGKEYKCKVSNKALPAPIEKTISKAKGQPREPQVCTLPPSREEMTKNQVSLSCAVKGFYPSDIAVEWESNGQPENNYKTTPPVLDSDGSFFLVSKLTVDKSRWQQGNVFSCSVMHEALHNHYTQKSLSLSPGK
heavy: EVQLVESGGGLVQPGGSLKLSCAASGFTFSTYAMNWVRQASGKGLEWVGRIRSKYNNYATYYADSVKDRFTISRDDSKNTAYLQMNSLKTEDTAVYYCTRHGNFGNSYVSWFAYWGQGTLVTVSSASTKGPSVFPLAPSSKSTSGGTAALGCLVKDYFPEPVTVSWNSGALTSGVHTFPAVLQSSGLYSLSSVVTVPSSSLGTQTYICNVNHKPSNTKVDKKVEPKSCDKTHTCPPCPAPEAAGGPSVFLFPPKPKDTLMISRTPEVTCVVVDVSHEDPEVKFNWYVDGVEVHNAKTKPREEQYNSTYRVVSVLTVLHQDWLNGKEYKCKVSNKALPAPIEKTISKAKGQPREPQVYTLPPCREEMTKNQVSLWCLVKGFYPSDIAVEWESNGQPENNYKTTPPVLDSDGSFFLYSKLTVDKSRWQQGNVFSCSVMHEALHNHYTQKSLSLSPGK
light: B3 light
notes: structure 7 (3+1 Fab-Fc-VH-VH-VH); PR003886 / PR004533; LALA
In the case of B5, the binding result in assay [1] is “no binding”. Further, in assay [2], the “TDCC, Titer EC50 (pM), NUGC4_D8” value was 28.9 pM. Besides, the EC50 in assay [4] amounted to 12.6 nM; in assay [8], 26.8 nM.

B6: PR005518 (bispecific antibody)
chain 1: B1 chain 1
chain 2: not shown
light: B3 light
notes: structure 2 (2+1 HCAb-Fc-Fab, CD3 VH-CH1 at the C-terminus of one HCAb chain); PR001848 / PR004533; LALA
With B6, the values for the binding result in assay [1] and in assay [5] were “no binding” and “binds”, respectively. The “TDCC, Titer EC50 (pM), NUGC4_D8” value in assay [2] is 30.6 pM. In assay [4], this molecule returned an EC50 of 20.5 nM.

B7: PR005522 (bispecific antibody, human IgG1, lambda, L234A L235A)
chain: B2 chain 1
heavy: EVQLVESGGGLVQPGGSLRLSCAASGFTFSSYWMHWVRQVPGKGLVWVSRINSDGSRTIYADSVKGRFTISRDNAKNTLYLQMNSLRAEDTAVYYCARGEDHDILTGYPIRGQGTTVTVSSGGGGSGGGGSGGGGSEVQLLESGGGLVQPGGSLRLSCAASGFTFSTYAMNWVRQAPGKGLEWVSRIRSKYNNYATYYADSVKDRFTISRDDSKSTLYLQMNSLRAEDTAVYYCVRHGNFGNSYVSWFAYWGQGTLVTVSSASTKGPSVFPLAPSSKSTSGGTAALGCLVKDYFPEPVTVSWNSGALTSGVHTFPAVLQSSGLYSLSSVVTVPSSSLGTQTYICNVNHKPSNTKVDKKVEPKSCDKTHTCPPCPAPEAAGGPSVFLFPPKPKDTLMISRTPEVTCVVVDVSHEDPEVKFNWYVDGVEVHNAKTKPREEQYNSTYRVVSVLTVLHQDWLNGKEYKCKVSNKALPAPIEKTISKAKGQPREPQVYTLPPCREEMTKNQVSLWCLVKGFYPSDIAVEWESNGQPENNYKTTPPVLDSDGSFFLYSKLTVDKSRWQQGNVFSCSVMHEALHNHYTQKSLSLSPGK
light: B3 light
notes: PR001848 / PR004533; LALA
With B7, the binding result in assay [1] is given as “no binding”; in assay [5] it was “binds”. Moreover, the “TDCC, Titer EC50 (pM), NUGC4_D8” value in assay [2] came to 186 pM. Further, the 50% effective concentration (EC50) in assay [4] stood at 13.9 nM.

B8: PR005354 (bispecific antibody, human IgG1, lambda, L234A L235A)
chain: B2 chain 1
heavy: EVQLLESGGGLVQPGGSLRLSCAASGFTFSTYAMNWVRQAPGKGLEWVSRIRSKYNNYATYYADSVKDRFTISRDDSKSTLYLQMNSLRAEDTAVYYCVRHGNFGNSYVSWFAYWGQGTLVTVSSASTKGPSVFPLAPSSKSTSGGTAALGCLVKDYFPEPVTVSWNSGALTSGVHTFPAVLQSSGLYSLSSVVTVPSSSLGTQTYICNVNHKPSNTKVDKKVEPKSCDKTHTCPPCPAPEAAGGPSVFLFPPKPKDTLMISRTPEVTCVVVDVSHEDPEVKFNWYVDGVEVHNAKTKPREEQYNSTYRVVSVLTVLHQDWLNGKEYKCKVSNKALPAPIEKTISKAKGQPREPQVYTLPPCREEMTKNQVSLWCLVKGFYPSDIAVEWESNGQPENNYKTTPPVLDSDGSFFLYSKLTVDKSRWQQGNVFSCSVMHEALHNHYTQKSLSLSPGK
light: B3 light
notes: structure 1; CD3 Fab from PR001848, CLDN18.2 VH from PR004533; LALA
In the case of B8, the results for the binding result in assay [1] and in assay [5] were “no binding” and “binds”, respectively. Also, the “TDCC, Titer EC50 (pM), NUGC4_D8” value in assay [2] came to 11 pM. The molecule also yielded an EC50 in assay [4] of 12.6 nM.

These data come from patent US20250340631A1 (HARBOUR BIOMED SHANGHAI, published 2025).
